Target: FLAG tagged TSC2 (UniProt P49815)
Experiment: single molecule pulldown

UniProt P49815, sequence (P49815 whole entry): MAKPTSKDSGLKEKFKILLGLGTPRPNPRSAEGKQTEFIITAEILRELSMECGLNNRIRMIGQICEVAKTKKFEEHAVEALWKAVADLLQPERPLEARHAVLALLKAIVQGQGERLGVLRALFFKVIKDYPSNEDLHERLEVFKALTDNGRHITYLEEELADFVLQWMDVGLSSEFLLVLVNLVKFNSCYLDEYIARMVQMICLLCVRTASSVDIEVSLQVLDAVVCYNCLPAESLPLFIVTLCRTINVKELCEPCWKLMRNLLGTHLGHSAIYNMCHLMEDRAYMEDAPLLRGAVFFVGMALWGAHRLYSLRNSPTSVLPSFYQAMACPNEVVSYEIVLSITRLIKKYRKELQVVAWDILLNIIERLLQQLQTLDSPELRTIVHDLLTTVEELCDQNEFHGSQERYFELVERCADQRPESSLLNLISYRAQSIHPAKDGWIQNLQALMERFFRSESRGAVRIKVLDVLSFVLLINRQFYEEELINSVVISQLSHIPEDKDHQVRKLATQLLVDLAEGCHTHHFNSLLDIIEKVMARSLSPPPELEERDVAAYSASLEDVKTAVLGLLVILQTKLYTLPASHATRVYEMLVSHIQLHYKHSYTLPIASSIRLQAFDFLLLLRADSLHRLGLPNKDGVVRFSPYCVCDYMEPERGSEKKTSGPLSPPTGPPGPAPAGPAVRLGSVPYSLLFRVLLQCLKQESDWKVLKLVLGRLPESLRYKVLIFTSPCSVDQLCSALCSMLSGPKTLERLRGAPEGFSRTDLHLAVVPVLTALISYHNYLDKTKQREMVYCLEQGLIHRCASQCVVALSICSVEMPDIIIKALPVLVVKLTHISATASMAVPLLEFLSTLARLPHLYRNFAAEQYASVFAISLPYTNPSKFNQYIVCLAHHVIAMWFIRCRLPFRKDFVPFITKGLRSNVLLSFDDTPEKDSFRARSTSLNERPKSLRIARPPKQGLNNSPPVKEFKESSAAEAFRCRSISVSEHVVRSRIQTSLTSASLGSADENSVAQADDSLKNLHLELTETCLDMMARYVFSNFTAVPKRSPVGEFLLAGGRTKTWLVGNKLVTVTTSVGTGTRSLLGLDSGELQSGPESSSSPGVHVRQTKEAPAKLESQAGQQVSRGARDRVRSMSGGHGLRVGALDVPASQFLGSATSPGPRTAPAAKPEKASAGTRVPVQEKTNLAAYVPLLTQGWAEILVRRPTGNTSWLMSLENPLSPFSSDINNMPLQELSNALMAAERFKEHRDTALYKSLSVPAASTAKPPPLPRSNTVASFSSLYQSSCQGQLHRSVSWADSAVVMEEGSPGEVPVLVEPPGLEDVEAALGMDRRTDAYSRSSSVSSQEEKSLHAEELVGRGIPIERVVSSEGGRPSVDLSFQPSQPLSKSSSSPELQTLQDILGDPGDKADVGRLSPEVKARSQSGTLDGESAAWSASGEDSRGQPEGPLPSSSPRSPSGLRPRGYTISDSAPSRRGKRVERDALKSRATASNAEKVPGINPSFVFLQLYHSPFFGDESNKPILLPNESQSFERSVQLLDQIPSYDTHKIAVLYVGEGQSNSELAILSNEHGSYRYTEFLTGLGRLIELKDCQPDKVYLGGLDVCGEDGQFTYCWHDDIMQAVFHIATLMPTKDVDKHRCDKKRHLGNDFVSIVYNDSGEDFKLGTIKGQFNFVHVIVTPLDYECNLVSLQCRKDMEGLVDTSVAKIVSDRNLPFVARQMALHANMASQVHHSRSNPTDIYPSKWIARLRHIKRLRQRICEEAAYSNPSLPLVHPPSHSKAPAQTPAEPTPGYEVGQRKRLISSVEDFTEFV

- IC50: 0.5 nM
Substance: recombinant α-syn PFF (from UniProt P37840 1-140) (natural protein)
